We go through 13 molecules from patent publication US8287850B2, “Conjugates of hydroxyalkyl starch and a protein, prepared by reductive amination” (Fresenius Kabi Deutschland GmbH, priority 2004, dated 2012).

B1: HES-GCSF 50/0.7: hG-CSF conjugated with AldehydoHES50/0.7 of example 6.1(j), prepared in example 6.2(b) (conjugate, UniProt P09919 31-207, looked up)
Granulocyte …: TPLGPASSLPQSFLLKCLEQVRKIQGDGAALQEKLVSECATYKLCHPEELVLLGHSLGIPWAPLSSCPSQALQLAGCLSQLHSGLFLYQGLLQALEGISPELGPTLDTLQLDVADFATTIWQQMEELGMAPALQPTQGAMPAFASAFQRRAGGVLVASHLQSFLEVSYRVLRHLAQP
modifications: hydroxyethyl starch conjugate HES50/0.7
B2: Neupogen: non-modified Neupogen (Amgen), rhG-CSF filgrastim, non-glycosylated, E. coli (protein, UniProt P09919 31-207, looked up)
Granulocyte …: B1 Granulocyte …
modifications: filgrastim, N-terminal Met
notes: non-modified Neupogen (Amgen), rhG-CSF filgrastim, non-glycosylated, E. coli
B3: Neulasta: non-modified Neulasta (Amgen) (conjugate, UniProt P09919 31-207, looked up)
Granulocyte …: B1 Granulocyte …
modifications: pegfilgrastim; 20 kDa PEG
B4: HES-GCSF 30/0.4: hG-CSF conjugated with AldehydoHES30/0.4 of example 6.1(f), prepared in example 6.2(d) (conjugate, UniProt P09919 31-207, looked up)
Granulocyte …: B1 Granulocyte …
modifications: hydroxyethyl starch conjugate HES30/0.4
B5: HES-GCSF 10/0.4: hG-CSF conjugated with AldehydoHES10/0.4 of example 6.1(b), prepared in example 6.2(b) (conjugate, UniProt P09919 31-207, looked up)
Granulocyte …: B1 Granulocyte …
modifications: hydroxyethyl starch conjugate HES10/0.4
B6: HES-GCSF 10/0.7: hG-CSF conjugated with AldehydoHES10/0.7 of example 6.1(d), prepared in example 6.2(b) (conjugate, UniProt P09919 31-207, looked up)
Granulocyte …: B1 Granulocyte …
modifications: hydroxyethyl starch conjugate HES10/0.7
B7: Mock-incubation: reaction control: hG-CSF incubated with 197 mg/ml non-functionalized HES50/0.7 (MW 47,000 D, DS 0.76) (protein, UniProt P09919 31-207, looked up)
Granulocyte …: B1 Granulocyte …
modifications: mixed with non-functionalized HES

Test system in one data set: not listed separately
As to the kind of experiment: In vivo half-life of G-CSF samples in mice (ELISA of plasma). The conditions noted are these: 100 μg per kg i.v. tail vein, female BALB/c mice. Here is the method: Female mice BALB/cOlaHsd (Harlan GmbH/Borchen) were used. On the day of administration, the is weights of the animals were measured (19-22 g). 100 μg per kg body weight of the chemically modified rh-G-CSF sample as prepared in Example 6.2(b) as well as Neupogen® and Neulasta® (Amgen) samples were each injected intravenously in the tail vein of nine mice. At 1, 3, 6, 11, 22, 30, 49, 72 hours after injection (see table below), samples of approx. 150 μl whole blood were taken from the tail vein or the retrobulbar venous plexus from 3 mice of the respective group using capillaries containing sodium-heparin (Hirschmann, Eberstadt) and stored on ice until preparation of plasma.
Whole blood was centrifuged for 10 minutes at 2000 g. Plasma was transferred to another tube and recentrifuged for 5 min at 3500 g. Aliquots were stored at −80° C. until the day of analysis. The amount of G-CSF in the plasma samples were quantified by utilizing a ELISA (R&D GambH, Wiesbaden) method, following the instruction of the manufacturer.
In turn, B1 came in with a half-life of 5.1 h.

In the case of B2, the half-life worked out at 1.2 h.

B3 gave a half-life of 5.2 h.

Test system in a further data set: not listed separately
As to the kind of experiment: In-vivo half-life of alpha1AT samples in mice (alpha1AT-ELISA). The conditions noted are these: 100 μl of 50 μg/ml i.v. tail vein, female BALB/c mice. As for the experimental part: Female mice aged 8-10 weeks (BALB/cOlaHsd, Harlan GmbH, Borchen, Germany) were utilized as test organism (42 mice, 14 per sample). The “is bodyweight” of each animal was detected right before administration of the different sample solutions. 100 μl of a 50 μg/ml solution of the samples outlined below in a puffer pH=7.2 (20 mmol sodium phosphate, 150 mmol sodium chloride) were injected intravenously in the tail vein of the mice.
At 1, 2, 4, 10, 24, 31, […], hours after injection, two mice of each group were killed and whole blood samples (˜500 μl) were withdrawn from the heart of the animals. Serum was prepared using Microvette® 500 Z-Gel (Sarstedt, Nümbrecht, Germany). The serum samples were stored at −80° C. until the beginning of the alpha1AT concentration measurements.
alpha1AT concentrations were detected using a commercially available alpha1AT-ELISA (Immundiagnostik, Bensheim, Germany) following the manufacturers instructions.
On to “A1AT: rh A1AT provided by GTC Biotherapeutics Inc., lot No. 080604A; starting material for the conjugation [Example A1AT]”, for which the “Plasma half-life in mice” value stood at 1.2 h.

For the molecule “HES-A1AT-conjugate: conjugate of aldehydo-HES (A) and (B) (MW 57,000 D, DS 0.76) with rh A1AT, example 5.5”, the “Plasma half-life in mice” value worked out at 3.6 h.

For the molecule “Sample 3: plasma derived h alpha1 AT (SERVA Electrophoresis GmbH) [reference compound]”, the “Plasma half-life in mice” value worked out at 3.2 h.

A further data set deals with mouse NFS-60 cells. As to the kind of experiment: Mitogenicity of G-CSF variants for mouse NFS-60 cells (Example 6.3). It is filed as cell-based. The conditions noted are these: Conc. 5 pg/ml (G-CSF content), 3 days. Here is the method:
G-CSF is known for its specific effects on the proliferation, differentiation and activation of hematopoietic cells of the neutrophilic granulocyte lineage. The mitogenic capacity of G-CSF variants was tested using mouse NFS-60 cells (N. Shirafuji et al., Exp. Hematol. 1989, 17, 116-119). Cells grown in RPMI medium with 10% fetal calf serum (Gibco INVITROGEN GmbH, Karlsruhe, D) containing 5-10% WEHI-3B (DSMZ, Braunschweig, D; cultivated as described by the DSMZ) conditioned medium as source of exogenous IL-3 were harvested by centrifugation, washed and aliquoted at 100,000 cells per well in a 24-well plate. Cells were allowed to adapt for 1 hour at 37° C. in RPMI medium without WEHI-3B conditioned media before G-CSF growth factor samples diluted in the same media were added. NFS-60 cells were exposed to purified G-CSF variants (purification according to examples 3A 1 und 2, protein quantification according to example 3B1):
“Mock incubation” (=reaction control, 197 mg/ml HES50/0.7, MW 47,000 D, DS 0.76, Supramol Parenteral Colloids GmbH, Rosbach Rodheim, Germany), for 3 days at 37° C. and then the cells were electronically counted (Casy TT Cell Counter, Schärfe System, Reutlingen, D).
In all cases, the amounts of protein given in the table below and FIG. 21 represent the G-CSF content of the conjugates only. […] All variants reached the same maximum stimulation level at a concentration of 250 pg/ml.
As to B1, the “Proliferation of mouse NFS-60 cells, induced by G-CSF variants” value (“Proliferation of mouse NFS-60 cells” for short) was determined as 0.70.

Regarding B4, the “Proliferation of mouse NFS-60 cells” value came to 1.21.

As to B5, the “Proliferation of mouse NFS-60 cells” value is reported as 0.97.

Regarding B6, the “Proliferation of mouse NFS-60 cells” value stood at 0.93.

As to B7, the “Proliferation of mouse NFS-60 cells” value was 1.31.

In the case of B2, the “Proliferation of mouse NFS-60 cells” value was 1.20.

For the molecule B3, the “Proliferation of mouse NFS-60 cells” value is on record as 0.80.

Staying with this data set, now noted: Conc. 10 pg/ml (G-CSF content), 3 days.
As for B1, the “Proliferation of mouse NFS-60 cells” value was determined as 0.97.

On to B4, for which the “Proliferation of mouse NFS-60 cells” value came to 1.62.

In the case of B5, the “Proliferation of mouse NFS-60 cells” value turned out to be 1.40.

As for B6, the “Proliferation of mouse NFS-60 cells” value was determined as 1.44.

B7: the “Proliferation of mouse NFS-60 cells” value was found to be 1.91.

Regarding B2, the “Proliferation of mouse NFS-60 cells” value was determined as 1.69.

Take B3: the “Proliferation of mouse NFS-60 cells” value is given as 1.12.

The same data set, now with this note: Conc. 25 pg/ml (G-CSF content), 3 days.
For B1, the “Proliferation of mouse NFS-60 cells” value was found to be 1.68.

With B4, the “Proliferation of mouse NFS-60 cells” value worked out at 2.28.

Take B5: the “Proliferation of mouse NFS-60 cells” value was 2.17.

For B6, the “Proliferation of mouse NFS-60 cells” value is 2.14.

In the case of B7, the “Proliferation of mouse NFS-60 cells” value is 2.38.

Regarding B2, the “Proliferation of mouse NFS-60 cells” value is 2.33.

With B3, the “Proliferation of mouse NFS-60 cells” value worked out at 1.83.

The data set is the same for the next values; noted with them: Conc. 50 pg/ml (G-CSF content), 3 days.
With B1, the “Proliferation of mouse NFS-60 cells” value came to 2.15.

Regarding B4, the “Proliferation of mouse NFS-60 cells” value was 2.50.

Turning to B5, the “Proliferation of mouse NFS-60 cells” value is recorded as 2.67.

In the case of B6, the “Proliferation of mouse NFS-60 cells” value is reported as 2.41.

Turning to B7, the “Proliferation of mouse NFS-60 cells” value turned out to be 2.47.

As for B2, the “Proliferation of mouse NFS-60 cells” value was determined as 2.49.

On to B3, for which the “Proliferation of mouse NFS-60 cells” value worked out at 2.25.

The data set is the same for the next values; noted with them: Conc. 250 pg/ml (G-CSF content), 3 days.
On to B1, for which the “Proliferation of mouse NFS-60 cells” value is 2.32.

On to B4, for which the “Proliferation of mouse NFS-60 cells” value turned out to be 2.60.

Turning to B5, the “Proliferation of mouse NFS-60 cells” value came to 2.75.

For B6, the “Proliferation of mouse NFS-60 cells” value came out at 2.41.

Regarding B7, the “Proliferation of mouse NFS-60 cells” value was 2.41.

On to B2, for which the “Proliferation of mouse NFS-60 cells” value amounted to 2.41.

B3: the “Proliferation of mouse NFS-60 cells” value was found to be 2.33.

The subject of a further data set is normocythaemic mouse system. As to the kind of experiment: EPO-bioassay in the normocythaemic mouse system. The data set is classed as in vivo. The note with it: mouse, in vivo. As for the experimental part: Quantitative determination of EPO protein was performed by measuring UV absorption at 280 nm according to the Eur. Phar. (European Pharmacopeia 4, Monography 01/2002: 1316: erythropoietin concentrated solution) in a cuvette with 1 cm path length. In addition, EPO was quantitated by applying a RP-HPLC method using a RP-C4 column (Vydac Protein C4, Cat.#214TP5410, Grace Vydac, Ca, US); the HPLC method was calibrated using the erythropoietin BRP 1 reference standard (European Pharmacopeia, Conseil de l'Europe B.P. 907-F67029, Strasbourg Cedex 1).
The EPO-bioassay in the normocythaemic mouse system was performed according to the procedures described in the European Pharmacopeia 4, Monography 01/2002:1316: Erythropoietin concentrated solution and Ph. Eur. Chapter 5.3: “Statistical Analysis of Results of Biological Assays and Tests”; For the HES-modified EPO according to example 7.3 a value for the specific activity of 418 500 units per mg EPO of protein was measured indicating an approximately 4-5 fold higher specific activity when compared to the EPO starting material.
With “EPO HES according to example 7.3: recombinant human EPO conjugated with aldehydo-HES of example 7.2 (MW 57,000 D, DS 0.76) by reductive amination”, the “Calculated specific activity of EPO sample (based on A280 and RP-HPLC determination)” value (from here on “Calculated specific activity”) is reported as 418500 U/mg; the “higher specific activity when compared to the EPO starting material” value is 4-5 fold.

For the molecule “EPO starting material (Reaction control A): EPO reacted with aldehydo-HES without sodium cyanoborohydride (example 7.4)”, the “Calculated specific activity” value is listed as 88500 U/mg.

Consider “EPO starting material (not modified): recombinant human EPO, essentially same characteristics as Erypo or NeoRecormon”, for which the “Calculated specific activity” value was 89000 U/mg.

Staying with this data set, now noted: per mg EPO of protein.
In the case of “EPO HES according to example 7.3: recombinant human EPO conjugated with aldehydo-HES of example 7.2 (MW 57,000 D, DS 0.76) by reductive amination”, the specific activity is given as 418 500 units per mg.
